Experimental data from patent US20240117030A1 (Pfizer, published 2024).
Numbering of substitutions follows the chain as printed.

T1: human IL-4 (human, UniProt P05112 25-153)
T1 sequence (looked up): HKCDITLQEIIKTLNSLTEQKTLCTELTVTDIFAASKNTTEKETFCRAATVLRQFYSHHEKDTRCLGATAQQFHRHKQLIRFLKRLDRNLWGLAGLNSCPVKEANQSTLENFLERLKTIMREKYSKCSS

T2: human IL-4 (human, UniProt P05112 25-153)
T2 sequence (looked up): T1 sequence (looked up)

T3: recombinant human IL-33 (R&D Systems 3625-IL), reduced with DTT (human, UniProt O95760 112-270, limits assumed)
T3 sequence (looked up): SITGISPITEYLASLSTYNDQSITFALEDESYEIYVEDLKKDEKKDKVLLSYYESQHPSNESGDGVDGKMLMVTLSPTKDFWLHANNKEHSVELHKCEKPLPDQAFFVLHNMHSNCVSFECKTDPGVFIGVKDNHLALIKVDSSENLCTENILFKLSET

B1: IL13-0259 (antibody, IgG1, V domains shown)
VH: EVQLVESGGGLVQPGGSLRLSCAASGFTFSSYAMSWVRQAPGKGLEWVASISTGDTTYYPDSVKGRFTISRDNAKNSLYLQMNSLRAEDTAVYYCARNEGYYFGLTQWGRGTLVTVSS
VL: DIQMTQSPSSLSASVGDRVTITCRASQSVDHFGWSLVHWYQQKPGKAPKLLIYRASNLESGVPSRFSGSGSGTDFTLTISSLQPEDFATYYCQQSNEDPWTFGGGTKVEIK
notes: IgG1 effector-null/kappa IgG
B2: IL13-0271 (antibody, IgG1, V domains shown)
VH: B1 VH
VL: B1 VL with Q27E, S56D, N57S, S60T
notes: IgG1 effector-null/kappa IgG; also called IL13433-0271
B3: IL13-0270 (antibody, V domains shown)
VH: B1 VH with Q107L, R110Q
VL: B1 VL with Q27E, S56D, N57S, S60T
notes: IgG1 effector-null/kappa IgG; also called IL13433-0270
B4: IL413TSLP-1028 (trispecific antibody)
heavy: not shown
chain 1: DIQMTQSPSSLSASVGDRVTITCKASESVDHFGWSLVHWYQQKPGKAPKLLIYRASNLESGVPSRFSGSGSGTDFTLTISSLQPEDFATYYCQQSNEDPWTFGGGTKVEIKRTVAAPSVFIFPPSDEQLKSGTASVVCLLNNFYPREAKVQWKVDNALQSGNSQESVTEQDSKDSTYSLSSTLTLSKADYEKHKVYACEVTHQGLSSPVTKSFNRGECGGGGSEVTLRESGPALVKPTQTLTLTCTFSGFSLSNFGEGLSWIRQPPGKGLEWLAHIYWDDDKRYNPSLKSRLTISKDTSRNQVVLTMTNMDPVDTATYYCARRETVFYWYFDVWGQGTTVTVSSASTKGPSVFPLAPSSKSTSGGTAALGCLVKDYFPEPVTVSWNSGALTSGVHTFPAVLQSSGLYSLSSVVTVPSSSLGTQTYICNVNHKPSNTKVDKKVEPKSCEKTHTCPPCPAPEAAGAPSVFLFPPKPKDTLMISRTPEVTCVVVDVSHEDPEVKFNWYVDGVEVHNAKTKPREEQYNSTYRVVSVLTVLHQDWLNGKEYKCKVSNKALPAPIEKTISKAKGQPREPQVYTLPPSREEMTKNQVSLTCEVKGFYPSDIAVEWESNGQPENNYKTTPPVLDSDGSFFLYSKLTVDKSRWQQGNVFSCSVLHEALHSHYTQKSLSLSPGK
light 1: SYVLTQPPSVSVAPGQTARITCGGNNLGSKSVHWYQQKPGQAPVLVVYDDSDRPSWIPERFSGSNSGNTATLTISRGEAGDEADYYCQVWDSSSKHVVFGGGTKLTVLGQPKAAPSVTLFPPSSEELQANKATLVCLISDFYPGAVTVAWKADSSPVKAGVETTTPSKQSNNKYAASSYLSLTPEQWKSHRSYSCQVTHEGSTVEKTVAPTECS
light 2: DIQMTQSPSSLSASVGDRVTITCRASQSVDEEGDSYMNWYQQKPGKAPKLLIYAASNLESGVPSRFSGSGSGTDFTLTISSLQPEDFATYYCQQSNKDPPTFGGGTKVEIKRTVAAPSVFIFPPSDEQLKSGTASVVCLLNNFYPREAKVQWKVDNALQSGNSQESVTEQDSKDSTYSLSSTLTLSKADYEKHKVYACEVTHQGLSSPVTKSFNRGEC
chain 2: EVQLVESGGGLVQPGGSLRLSCAASGFTFSSYAMSWVRQAPGKGLEWVASISSGDTTYYPDSVKGRFTISRDNAKNSLYLQMNSLRAEDTAVYYCARNEGYYFGLTLWGQGTLVTVSSASTKGPSVFPLAPSSKSTSGGTAALGCLVKDYFPEPVTVSWNSGALTSGVHTFPAVLQSSGLYSLSSVVTVPSSSLGTQTYICNVNHKPSNTKVDKKVEPKSC
B5: IL413TSLP-0252 (other)
heavy: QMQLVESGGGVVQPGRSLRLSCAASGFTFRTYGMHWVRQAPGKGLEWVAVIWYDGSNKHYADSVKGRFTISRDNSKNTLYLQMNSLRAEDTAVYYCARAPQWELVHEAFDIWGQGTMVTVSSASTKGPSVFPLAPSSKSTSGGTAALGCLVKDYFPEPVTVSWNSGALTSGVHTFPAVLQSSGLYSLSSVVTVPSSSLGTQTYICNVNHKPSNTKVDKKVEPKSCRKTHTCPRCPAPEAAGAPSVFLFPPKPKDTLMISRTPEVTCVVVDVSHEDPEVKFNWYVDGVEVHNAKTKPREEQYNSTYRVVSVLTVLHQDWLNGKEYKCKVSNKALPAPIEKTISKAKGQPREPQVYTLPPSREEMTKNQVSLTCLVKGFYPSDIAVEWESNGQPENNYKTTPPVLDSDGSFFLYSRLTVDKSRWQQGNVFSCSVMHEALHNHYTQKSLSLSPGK
chain 1: B4 chain 1 with P455E, L655M, S661N
light 1: B4 light 1 with K95D
light 2: B4 light 2 with R24K, E32D, K97E
chain 2: B4 chain 2
B6: IL413TSLP-0007 (trispecific antibody, human IgG1, kappa, lambda)
heavy: EVTLRESGPALVKPTQTLTLTCTFSGFSLSNFGEGLSWIRQPPGKGLEWLAHIYWDDDKRYNPSLKSRLTISKDTSRNQVVLTMTNMDPVDTATYYCARRETVFYWYFDVWGQGTTVTVSSASTKGPSVFPEAPSSKSTSGGTAALGCLVKDYFPEPVTVSWNSGALTSGVHTFPAVLQSSGLYSLGSVVTVPSSSLGTQTYICNVNHKPSNTKVDKKVEPKSCDKTHTCPPCPAPEAAGAPSVFLFPPKPKDTLMISRTPEVTCVVVDVSHEDPEVKFNWYVDGVEVHNAKTKPREEQYNSTYRVVSVLTVLHQDWLNGKEYKCKVSNKALPAPIEKTISKAKGQPREPQVYTLPPCREEMTKNQVSLSCAVKGFYPSDIAVEWESNGQPENNYKTTPPVLDSDGSFFLVSKLTVDKSRWQQGNVFSCSVMHEALHNHYTQKSLSLSPGK
chain 1: SYVLTQPPSVSVAPGQTARITCGGNNLGSKSVHWYQQKPGQAPVLVVYDDSDRPSWIPERFSGSNSGNTATLTISRGEAGDEADYYCQVWDSSSDHVVFGGGTKLTVLASTKGPSVFPLAPSSKSTSGGTAALGCLVKDYFPEPVTVSWNSGALTSGVHTFPAVLQSSGLYSLSSVVTVPSSSLGTQTYICNVNHKPSNTKVDKKVEPKSCGGGGSEVQLVESGGGLVQPGGSLRLSCAASGFTFSSYAMSWVRQAPGKGLEWVASISSGDTTYYPDSVKGRFTISRDNAKNSLYLQMNSLRAEDTAVYYCARNEGYYFGLTLWGQGTLVTVSSASTKGPSVFPKAPSSKSTSGGTAALGCLVKDYFPEPVTVSWNSGALTSGVHTFPAVLQSSGLYSLSSSVTVPSSSLGTQTYICNVNHKPSNTKVDKKVEPKSCDKTHTCPPCPAPEAAGAPSVFLFPPKPKDTLMISRTPEVTCVVVDVSHEDPEVKFNWYVDGVEVHNAKTKPREEQYNSTYRVVSVLTVLHQDWLNGKEYKCKVSNKALPAPIEKTISKAKGQPREPQVCTLPPSREEMTKNQVSLWCLVKGFYPSDIAVEWESNGQPENNYKTTPPVLDSDGSFFLYSKLTVDKSRWQQGNVFSCSVMHEALHNHYTQKSLSLSPGK
light 1: B4 light 2 with R24K, E32D, K97E, V137S, S180K
light 2: DIQMTQSPSSLSASVGDRVTITCKASESVDHFGWSLVHWYQQKPGKAPKLLIYRASNLESGVPSRFSGSGSGTDFTLTISSLQPEDFATYYCQQSNEDPWTFGGGTKVEIKRTVAAPSVFIFPPSDEQLKSGTASVSCLLNNFYPREAKVQWKVDNALQSGNSQESVTEQDSKDSTYSLDSTLTLSKADYEKHKVYACEVTHQGLSSPVTKSFNRGEC
chain 2: QMQLVESGGGVVQPGRSLRLSCAASGFTFRTYGMHWVRQAPGKGLEWVAVIWYDGSNKHYADSVKGRFTITRDNSKNTLNLQMNSLRAEDTAVYYCARAPQWELVHEAFDIWGQGTMVTVSSGQPKAAPSVTLFPPSSEELQANKATLVCLISDFYPGAVTVAWKADSSPVKAGVETTTPSKQSNNKYAASSYLSLTPEQWKSHRSYSCQVTHEGSTVEKTVAPTECS
B7: IL413TSLP-0251 (other)
heavy: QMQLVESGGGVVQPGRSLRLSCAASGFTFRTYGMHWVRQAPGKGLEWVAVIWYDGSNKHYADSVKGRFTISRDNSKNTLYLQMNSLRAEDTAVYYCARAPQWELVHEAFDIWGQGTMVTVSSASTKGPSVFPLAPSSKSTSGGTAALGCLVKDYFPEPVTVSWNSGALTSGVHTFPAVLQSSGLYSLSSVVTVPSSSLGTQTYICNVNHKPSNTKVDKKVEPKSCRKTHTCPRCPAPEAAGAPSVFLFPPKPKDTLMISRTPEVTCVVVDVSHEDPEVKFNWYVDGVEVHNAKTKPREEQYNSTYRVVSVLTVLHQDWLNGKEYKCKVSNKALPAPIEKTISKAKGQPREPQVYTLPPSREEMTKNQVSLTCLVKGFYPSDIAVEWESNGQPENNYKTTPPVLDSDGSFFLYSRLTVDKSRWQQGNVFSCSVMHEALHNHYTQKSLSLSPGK
chain 1: EVQLVESGGGLVQPGGSLRLSCAASGFTFSSYAMSWVRQAPGKGLEWVASISSGDTTYYPDSVKGRFTISRDNAKNSLYLQMNSLRAEDTAVYYCARNEGYYFGLTLWGQGTLVTVSSRTVAAPSVFIFPPSDEQLKSGTASVVCLLNNFYPREAKVQWKVDNALQSGNSQESVTEQDSKDSTYSLSSTLTLSKADYEKHKVYACEVTHQGLSSPVTKSFNRGECGGGGSEVTLRESGPALVKPTQTLTLTCTFSGFSLSNFGEGLSWIRQPPGKGLEWLAHIYWDDDKRYNPSLKSRLTISKDTSRNQVVLTMTNMDPVDTATYYCARRETVFYWYFDVWGQGTTVTVSSASTKGPSVFPLAPSSKSTSGGTAALGCLVKDYFPEPVTVSWNSGALTSGVHTFPAVLQSSGLYSLSSVVTVPSSSLGTQTYICNVNHKPSNTKVDKKVEPKSCEKTHTCPECPAPEAAGAPSVFLFPPKPKDTLMISRTPEVTCVVVDVSHEDPEVKFNWYVDGVEVHNAKTKPREEQYNSTYRVVSVLTVLHQDWLNGKEYKCKVSNKALPAPIEKTISKAKGQPREPQVYTLPPSREEMTKNQVSLTCEVKGFYPSDIAVEWESNGQPENNYKTTPPVLDSDGSFFLYSKLTVDKSRWQQGNVFSCSVMHEALHNHYTQKSLSLSPGK
light 1: B4 light 1 with K95D
light 2: B4 light 2 with R24K, E32D, K97E
chain 2: DIQMTQSPSSLSASVGDRVTITCKASESVDHFGWSLVHWYQQKPGKAPKLLIYRASNLESGVPSRFSGSGSGTDFTLTISSLQPEDFATYYCQQSNEDPWTFGGGTKVEIKASTKGPSVFPLAPSSKSTSGGTAALGCLVKDYFPEPVTVSWNSGALTSGVHTFPAVLQSSGLYSLSSVVTVPSSSLGTQTYICNVNHKPSNTKVDKKVEPKSC
B8: IL33-0721 (antibody, IgG1, V domains shown)
VH: EVQLVESGGGLVQPGGSLRLSCAASGFEFSHYWMYWVRQAPGKGLEWVAAITPNAGEDYYPESVKGRFTISRDNAKNSLYLQMNSLRAEDTAVYYCARGYYRYTKYSLGYWGQGTLVTVSS
VL: DIQMTQSPSSLSASVGDRVTITCRASQPIHQFLDWYQQKPGKAPKLLIYFGHILQEGVPSRFSGSGSGTDFTLTISSLQPEDFATYYCFQYKQGWSFGGGTKVEIK

What was measured:
human IL-13 [1] = biological target: T4, human IL-13 (human, UniProt P35225 35-146); assay: cell-based or functional assay
T4 sequence (P35225 35-146 limits assumed, form in doubt): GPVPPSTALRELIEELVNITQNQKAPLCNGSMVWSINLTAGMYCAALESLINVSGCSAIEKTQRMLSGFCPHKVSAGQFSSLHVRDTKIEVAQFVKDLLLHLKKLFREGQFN

human IL-13 [2] = biological target: T4, human IL-13; assay: SPR 37°C, antibody captured by anti-human IgG, human IL-13 1.56-50 nM
Protocol: The affinity values (KD) were determined using Surface Plasmon Resonance (SPR) for 10 lead variants identified from bioassay screening.

human IL-4 [3] = biological target: T1, human IL-4; assay: cell-based or functional assay
human TSLP (long form) [4] = biological target: T5, human TSLP (long form) (human, UniProt Q969D9 29-159, Biotinylated on the Avi tag in some assays; glycosylated (Expi293F expression)); assay: cell-based or functional assay
human IL-13 [5] = biological target: T4, human IL-13; assay: cell-based or functional assay; remark: listed apart in the source
human IL-4 [6] = biological target: T2, human IL-4; assay: cell-based or functional assay; remark: listed apart in the source
human IL-13 [7] = biological target: human IL-13 (human, UniProt P35225 35-146); assay: cell-based or functional assay; remark: listed apart in the source
Target sequence in this assay (P35225 35-146 limits assumed): as the sequence (P35225 35-146 limits assumed, form in doubt) above

human TSLP (long form) [8] = biological target: T5, human TSLP (long form); assay: bridging sandwich ELISA: human TSLP coated, Tri-Fab-Fc titrated, IL-13-FLAG added, detected with HRP anti-FLAG (OD450nm)
Protocol: For this method, 25 μL/well of 1 μg/mL recombinant human TSLP (in PBS pH7.2) was coated onto a 384-well clear flat bottom Maxisorp plates (NUNC) overnight at 4° C. and blocked with PBS without Mg²⁺ and Ca²⁺ with 3% BSA. Serially diluted Tri-Fab-Fc variants were added to the plates and incubated for 1 hour at room temperature (RT). After washing away the unbound Tri-Fab-Fc by washing with buffer (PBS without Mg²⁺ and Ca²⁺ with 0.05% tween 20), 25 μL/well of 100 ng/mL IL-13-FLAG (Pfizer Inc) was added to the plates and incubated at RT for one hour. The Tri-Fab-Fc bound to both TSLP and IL-13 was detected by HRP conjugated anti-FLAG secondary antibody (Sigma, Cat #A8592).

[9] = biological target: T3, recombinant human IL-33 (R&D Systems …); assay: cell-based or functional assay

Binder | CD23: Fold versus IL13-0001 (human IL-13 [1]) [fold] | CD23 IC50 [pM] Ave. n = 2 (human IL-13 [1]) [pM] | Kd (human IL-13 [2]) [nM] | also measured
B1 | 0.81 | 7.4 | 0.0717 | 
B2 | 1.01 | 5.9 | 0.0736 | 
B3 | 0.67 | 9 | 0.0932 | 
B4 |  |  |  | IC50, IL-4-induced CCL17 secretion by 769-P cells (human IL-4 [3]): 0.139 nM; fold lower potency than the mAb (TSLP-0855), monocyte TARC bioassay (human TSLP (long form) [4]): ~2.5 fold; IC50, IL-13-induced CCL17 secretion by 769-P cells (human IL-13 [5]): 0.811 nM
B5 |  |  |  | a-hIL-4 IC50 [pM] (human IL-4 [6]): 3.65 pM; a-hIL-13 IC50 [pM] (human IL-13 [7]): 11.2 pM
B6 |  |  |  | EC50 (read off the curve) (human TSLP (long form) [8]): ~0.6 nM
B7 |  |  |  | a-hIL-4 IC50 [pM] (human IL-4 [6]): 6.11 pM; a-hIL-13 IC50 [pM] (human IL-13 [7]): 13.7 pM
B8 |  |  |  | IC50 [nM] versus reduced human IL-33 (R&D), IC50 (AVE) [9]: 0.026 nM
